Test results as given in IntAct's records for PubMed 23825108.

B1: Cyanocobalamin reductase / alkylcobalamin dealkylase (Homo sapiens), Q9Y4U1 (parent)
chain: MEPKVAELKQKIEDTLCPFGFEVYPFQVAWYNELLPPAFHLPLPGPTLAFLVLSTPAMFDRALKPFLQSCHLRMLTDPVDQCVAYHLGRVRESLPELQIEIIADYEVHPNRRPKILAQTAAHVAGAAYYYQRQDVEADPWGNQRISGVCIHPRFGGWFAIRGVVLLPGIEVPDLPPRKPHDCVPTRADRIALLEGFNFHWRDWTYRDAVTPQERYSEEQKAYFSTPPAQRLALLGLAQPSEKPSSPSPDLPFTTPAPKKPGNPSRARSWLSPRVSPPASPGP

Variants of: B1
Conditions: with meth_human MTR

effect of a mutation on the interaction	Variant
decreasing interaction strength	MEPKVAELKQKIEDTLCPFGFEVYPFQVAWYNELLPPAFHLPLPGPTLAFLVLSTPAMFDRALKPFLQSCHLRMLTDPVDQCVAYHLGRVRESLPELQIEIIADYEVHPNRRPKILAQTAAHVAGAAYYYQRQDVEADPWGNQRISGVCIHPRFGGWFAIRGVVLLPGIEVPDLPPRKPHDCVPTRADRIALLEGFNFHWRDWTYWDAVTPQERYSEEQKAYFSTPPAQRLALLGLAQPSEKPSSPSPDLPFTTPAPKKPGNPSRARSWLSPRVSPPASPGP [R206W]
decreasing interaction strength	MEPKVAELKQKIEDTLCPFGFEVYPFQVAWYNELLPPAFHLPLPGPTLAFLVLSTPAMFDRALKPFLQSCHLRMLTDPVDQCVAYHLGRVRESLPELQIEIIADYEVHPNRRPKILAQTAAHVAGAAYYYQRQDVEADPWGNQRISGVCIHPRFGGWFAIQGVVLLPGIEVPDLPPRKPHDCVPTRADRIALLEGFNFHWRDWTYRDAVTPQERYSEEQKAYFSTPPAQRLALLGLAQPSEKPSSPSPDLPFTTPAPKKPGNPSRARSWLSPRVSPPASPGP [R161Q]
